Tested on: T1, Nc1ncnc2c1ncn2[C@@H]1O[C@H](COP(=O)(O)OP(=O)(O)OP(=O)(O)O)[C@@H](O)[C@H]1O
T1 construct: holo V/A-ATPase (A3B3D1F1 + E2G2d1a1c12), C-terminal His3 tag on each c subunit, purified from T. thermophilus membranes, nucleotide removed by EDTA/phosphate dialysis, MSP1E3D1/DMPC nanodiscs; models cover V1EG; with V-type ATP synthase subunit D; V-type ATP synthase subunit F; V-type ATP synthase subunit E; V-type ATP synthase subunit G; V-type ATP synthase subunit C; V-type ATP synthase subunit I; V-type ATP synthase subunit K
Test: purified protein
Format: biochemical, Thermus thermophilus
Settings: nanodisc enzyme, ATP-Mg, 50 mM Tris-HCl pH 8.0, 100 mM KCl, 25 °C, ATP-regenerating system, all rows carry A/S232A, A/T235S

Tth V/A-ATPase (A/S232A, T235S; TSSA mutant), nanodisc-incorporated, nucleotide-free (Thermus thermophilus HB8; Q56403:S232A/Q56403:T235S)
Km: 394 µM
kcat: 22 s⁻¹

Reference: PMC8904598, “Structural snapshots of V/A-ATPase reveal the rotary catalytic mechanism of rotary ATPases” (Nature Communications, 2022)
